In PMC7181697:

Key:
[1] = target: REV7^W171A-SHLD3(1–82) (human) (UniProt Q9UI95); experiment: ITC; method not named in the sentence (Supplementary Fig. 7e, f); ITC is the only method for affinities that the methods describe
[2] = target: REV7^Y63A-SHLD3(1–82) (human) (UniProt Q9UI95); experiment: as above
Sequence of REV7^Y63A-SHLD3(1–82) (human) (Q9UI95 whole entry Y63A, chain 1 of 2): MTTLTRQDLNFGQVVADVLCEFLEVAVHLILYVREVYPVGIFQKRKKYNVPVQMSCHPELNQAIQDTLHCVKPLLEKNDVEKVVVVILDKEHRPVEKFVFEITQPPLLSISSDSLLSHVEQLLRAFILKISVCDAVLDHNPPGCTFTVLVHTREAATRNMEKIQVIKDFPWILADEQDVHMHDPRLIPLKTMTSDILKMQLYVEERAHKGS
Sequence of REV7^Y63A-SHLD3(1–82) (human) (Q6ZNX1 1-82, chain 2 of 2, further chain): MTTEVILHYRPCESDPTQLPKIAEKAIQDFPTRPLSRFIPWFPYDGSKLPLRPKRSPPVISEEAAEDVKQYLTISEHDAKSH

Sequence of REV7^W171A-SHLD3(1–82) (human) (Q9UI95 whole entry W171A, chain 1 of 2): as the sequence (Q9UI95 whole entry Y63A, chain 1 of 2) above, with A63Y, W171A counted along it
Sequence of REV7^W171A-SHLD3(1–82) (human) (Q6ZNX1 1-82, chain 2 of 2, further chain): as the sequence (Q6ZNX1 1-82, chain 2 of 2, further chain) above

B1: MBP-REV3(1847–2021) (domain or fragment)
chain: MLTPTPDSSPRSTSSPSQSKNGSFTPRTANILKPLMSPPSREEIMATLLDHDLSETIYQEPFCSNPSDVPEKPREIGGRLLMVETRLANDLAEFEGDFSLEGLRLWKTAFSAMTQNPRPGSPLRSGQGVVNKGSSNSPKMVEDKKIVIMPCKCAPSRQLVQVWLQAKEEYERSKK
Question: How did the Kd [1] turn out when B1 was run?
Answer: The Kd was 1.1 µM.

Question: And the Kd [2]?
Answer: Its Kd is 37 µM.
